The Kd is the concentration at which binding is half-saturated.

Holding throughout (assay): ITC
(In general: In ITC the heat of successive injections is recorded.)

Data set [1] has as its target Jun bZIP K268A;Fos bZIP R143A (human;human, UniProt P05412;P01100 252-315;137-200, K268A|R143A).
Data set [2] addresses Jun bZIP K258A;Fos bZIP R157A (human;human, UniProt P05412;P01100 252-315;137-200, K258A|R157A).
Data set [3] addresses Jun bZIP R263A;Fos bZIP R158A (human;human, UniProt P05412;P01100 252-315;137-200, R263A|R158A).
For data set [4], the target named is Jun bZIP K258A;Fos bZIP K148A (human;human, UniProt P05412;P01100 252-315;137-200, K258A|K148A).
Sequence of Jun bZIP K258A;Fos bZIP K148A (P05412 252-315 K258A, chain 1 of 2): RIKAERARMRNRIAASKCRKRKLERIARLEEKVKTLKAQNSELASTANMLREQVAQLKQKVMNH
Sequence of Jun bZIP K258A;Fos bZIP K148A (P01100 137-200 K148A, chain 2 of 2): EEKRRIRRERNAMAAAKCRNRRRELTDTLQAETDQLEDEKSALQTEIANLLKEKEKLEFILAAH
Data set [5] addresses Jun bZIP K268A;Fos bZIP R155A (human;human, UniProt P05412;P01100 252-315;137-200, K268A|R155A).
Data set [6] deals with Jun bZIP R259A;Fos bZIP R155A (human;human, UniProt P05412;P01100 252-315;137-200, R259A|R155A).
Sequence of Jun bZIP R259A;Fos bZIP R155A (P05412 252-315 R259A, chain 1 of 2): as the sequence (P05412 252-315 K258A, chain 1 of 2) above, with A7K, R8A counted along it
Sequence of Jun bZIP R259A;Fos bZIP R155A (P01100 137-200 R155A, chain 2 of 2): as the sequence (P01100 137-200 K148A, chain 2 of 2) above, with A12K, R19A counted along it
The target of data set [7] is Jun bZIP R263A;Fos bZIP R157A (human;human, UniProt P05412;P01100 252-315;137-200, R263A|R157A).
Sequence of Jun bZIP R263A;Fos bZIP R157A (P05412 252-315 R263A, chain 1 of 2): as the sequence (P05412 252-315 K258A, chain 1 of 2) above, with A7K, R12A counted along it
Sequence of Jun bZIP R263A;Fos bZIP R157A (P01100 137-200 R157A, chain 2 of 2): as the sequence (P01100 137-200 K148A, chain 2 of 2) above, with A12K, R21A counted along it
In data set [8] the target is Jun bZIP R261A;Fos bZIP R144A (human;human, UniProt P05412;P01100 252-315;137-200, R261A|R144A).
Sequence of Jun bZIP R261A;Fos bZIP R144A (P05412 252-315 R261A, chain 1 of 2): as the sequence (P05412 252-315 K258A, chain 1 of 2) above, with A7K, R10A counted along it
Sequence of Jun bZIP R261A;Fos bZIP R144A (P01100 137-200 R144A, chain 2 of 2): as the sequence (P01100 137-200 K148A, chain 2 of 2) above, with R8A, A12K counted along it
The target in data set [9] is Jun bZIP R261A;Fos bZIP K148A (human;human, UniProt P05412;P01100 252-315;137-200, R261A|K148A).
Sequence of Jun bZIP R261A;Fos bZIP K148A (P05412 252-315 R261A, chain 1 of 2): as the sequence (P05412 252-315 K258A, chain 1 of 2) above, with A7K, R10A counted along it
Sequence of Jun bZIP R261A;Fos bZIP K148A (P01100 137-200 K148A, chain 2 of 2): as the sequence (P01100 137-200 K148A, chain 2 of 2) above
Data set [10] deals with Jun bZIP K258A;Fos bZIP R143A (human;human, UniProt P05412;P01100 252-315;137-200, K258A|R143A).
Sequence of Jun bZIP K258A;Fos bZIP R143A (P05412 252-315 K258A, chain 1 of 2): as the sequence (P05412 252-315 K258A, chain 1 of 2) above
Sequence of Jun bZIP K258A;Fos bZIP R143A (P01100 137-200 R143A, chain 2 of 2): as the sequence (P01100 137-200 K148A, chain 2 of 2) above, with R7A, A12K counted along it
The target of data set [11] is Jun bZIP R270A;Fos bZIP R143A (human;human, UniProt P05412;P01100 252-315;137-200, R270A|R143A).
Sequence of Jun bZIP R270A;Fos bZIP R143A (P05412 252-315 R270A, chain 1 of 2): as the sequence (P05412 252-315 K258A, chain 1 of 2) above, with A7K, R19A counted along it
Sequence of Jun bZIP R270A;Fos bZIP R143A (P01100 137-200 R143A, chain 2 of 2): as the sequence (P01100 137-200 K148A, chain 2 of 2) above, with R7A, A12K counted along it
The target in data set [12] is Jun bZIP R263A;Fos bZIP R144A (human;human, UniProt P05412;P01100 252-315;137-200, R263A|R144A).
Sequence of Jun bZIP R263A;Fos bZIP R144A (P05412 252-315 R263A, chain 1 of 2): as the sequence (P05412 252-315 K258A, chain 1 of 2) above, with A7K, R12A counted along it
Sequence of Jun bZIP R263A;Fos bZIP R144A (P01100 137-200 R144A, chain 2 of 2): as the sequence (P01100 137-200 K148A, chain 2 of 2) above, with R8A, A12K counted along it
Data set [13] concerns the target Jun-Jun bZIP WT (human, UniProt P05412 252-315).
Data set [14] has as its target Jun bZIP K268A;Fos bZIP R157A (human;human, UniProt P05412;P01100 252-315;137-200, K268A|R157A).
Data set [15] deals with Jun bZIP R270A;Fos bZIP R144A (human;human, UniProt P05412;P01100 252-315;137-200, R270A|R144A).
Sequence of Jun bZIP R270A;Fos bZIP R144A (P05412 252-315 R270A, chain 1 of 2): as the sequence (P05412 252-315 K258A, chain 1 of 2) above, with A7K, R19A counted along it
Sequence of Jun bZIP R270A;Fos bZIP R144A (P01100 137-200 R144A, chain 2 of 2): as the sequence (P01100 137-200 K148A, chain 2 of 2) above, with R8A, A12K counted along it
The target of data set [16] is Jun-Jun bZIP R261A (human, UniProt P05412 252-315, R261A).
Sequence of Jun-Jun bZIP R261A (P05412 252-315 R261A): as the sequence (P05412 252-315 K258A, chain 1 of 2) above, with A7K, R10A counted along it
The target in data set [17] is Jun-Jun bZIP R263A (human, UniProt P05412 252-315, R263A).
Sequence of Jun-Jun bZIP R263A (P05412 252-315 R263A): as the sequence (P05412 252-315 K258A, chain 1 of 2) above, with A7K, R12A counted along it

Sequence of Jun-Jun bZIP WT (P05412 252-315): as the sequence (P05412 252-315 K258A, chain 1 of 2) above, with A7K counted along it
Sequence of Jun bZIP K268A;Fos bZIP R157A (P05412 252-315 K268A, chain 1 of 2): as the sequence (P05412 252-315 K258A, chain 1 of 2) above, with A7K, K17A counted along it
Sequence of Jun bZIP K268A;Fos bZIP R157A (P01100 137-200 R157A, chain 2 of 2): as the sequence (P01100 137-200 K148A, chain 2 of 2) above, with A12K, R21A counted along it
Sequence of Jun bZIP K268A;Fos bZIP R143A (P05412 252-315 K268A, chain 1 of 2): as the sequence (P05412 252-315 K258A, chain 1 of 2) above, with A7K, K17A counted along it
Sequence of Jun bZIP K268A;Fos bZIP R143A (P01100 137-200 R143A, chain 2 of 2): as the sequence (P01100 137-200 K148A, chain 2 of 2) above, with R7A, A12K counted along it
Sequence of Jun bZIP K268A;Fos bZIP R155A (P05412 252-315 K268A, chain 1 of 2): as the sequence (P05412 252-315 K258A, chain 1 of 2) above, with A7K, K17A counted along it
Sequence of Jun bZIP K268A;Fos bZIP R155A (P01100 137-200 R155A, chain 2 of 2): as the sequence (P01100 137-200 K148A, chain 2 of 2) above, with A12K, R19A counted along it
Sequence of Jun bZIP R263A;Fos bZIP R158A (P05412 252-315 R263A, chain 1 of 2): as the sequence (P05412 252-315 K258A, chain 1 of 2) above, with A7K, R12A counted along it
Sequence of Jun bZIP R263A;Fos bZIP R158A (P01100 137-200 R158A, chain 2 of 2): as the sequence (P01100 137-200 K148A, chain 2 of 2) above, with A12K, R22A counted along it
Sequence of Jun bZIP K258A;Fos bZIP R157A (P05412 252-315 K258A, chain 1 of 2): as the sequence (P05412 252-315 K258A, chain 1 of 2) above
Sequence of Jun bZIP K258A;Fos bZIP R157A (P01100 137-200 R157A, chain 2 of 2): as the sequence (P01100 137-200 K148A, chain 2 of 2) above, with A12K, R21A counted along it

B1: TRE duplex 15-mer (dsDNA)
DNA 1: CGCGTGACTCACCCC
DNA 2: GGGGTGAGTCACGCG
For the molecule B1, the Kd in data set [1] was determined as 720 ± 10 nM; in data set [2], 1500 ± 80 nM; in data set [3], 1120 ± 70 nM; in data set [4], 660 ± 20 nM; in data set [5] it was 1390 ± 80 nM; in data set [6], 5750 ± 90 nM. The Kd in [7] was determined as 1740 ± 30 nM; in data set [8] it was 1840 ± 80 nM; in data set [9], 950 ± 60 nM; in data set [10], 860 ± 70 nM; in data set [11] it was 1600 ± 50 nM; in [12], 4210 ± 200 nM. Also, the Kd in data set [13] came out at 190 ± 20 nM; in data set [14] it was 600 ± 30 nM; in data set [15], 6700 ± 410 nM; in data set [16], 380 ± 20 nM; in data set [17], 2140 ± 100 nM.

The record behind these values is paper PMC3154423.
